Laboratory results: patent US10940200

Key:
[1] = molecular target: recombinant TGF-β1 (rat TGFβ1 sequence expressed in HEK cells, heat-activated) (rat) (UniProt P17246); assay: cell-based or functional assay
[2] = molecular target: TGF-β present in IFN-β-treated mouse 2D2-FIG splenocyte cultures (endogenous) (mouse); assay: cell-based or functional assay

UniProt P17246, sequence (P17246 279-390 limits assumed): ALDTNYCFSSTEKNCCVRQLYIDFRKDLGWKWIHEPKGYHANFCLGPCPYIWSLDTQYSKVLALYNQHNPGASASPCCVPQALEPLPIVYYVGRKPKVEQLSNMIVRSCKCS

B1: 1D11.16.8 anti-mouse-TGF-β1/2/3 mouse IgG1 mAb (antibody, from another filing, V domains shown)
VH: QVQLQQSGPELVRPGASVKLSCKASGYIFITYWMNWVKQRPGQGLEWIGQIFPASGSTNYNEMFEGKATLTVDTSSSTAYMQLSSLTSEDSAVYYCARGDGNYALDAMDYWGQGTSVTVSS
VL: DIVLTQSPASLAVSLGQRATISCRASESVDSYGNSFMHWYQQKSGQPPKLLIYLASNLESGVPARFSGSGSRTDFTLTIDPVEADDAATYYCQQNNEDPLTFGAGTKLEIK
inhibition of TGF-β-induced FOXP3+ Treg induction (GFP) in MOG35-55-stimulated 2D2-FIG splenocytes, 7 days [1]: 1 µg/mL
inhibition of IFN-β-induced FOXP3+ Treg induction (GFP) in MOG35-55-stimulated 2D2-FIG splenocytes, 7 days [2]: 1 µg/mL
